Experimental data as given in patent US20250262210A1 (TRUSTEES OF COLUMBIA UNIVERSITY IN THE CITY OF NEW YORK, published 2025).

Legend:
[1] = target: T1, FHOD1 (human, UniProt Q9Y613 2-1164); assay: IP/MS, LZTR1 R810W-FLAG, U87
T1 sequence (looked up): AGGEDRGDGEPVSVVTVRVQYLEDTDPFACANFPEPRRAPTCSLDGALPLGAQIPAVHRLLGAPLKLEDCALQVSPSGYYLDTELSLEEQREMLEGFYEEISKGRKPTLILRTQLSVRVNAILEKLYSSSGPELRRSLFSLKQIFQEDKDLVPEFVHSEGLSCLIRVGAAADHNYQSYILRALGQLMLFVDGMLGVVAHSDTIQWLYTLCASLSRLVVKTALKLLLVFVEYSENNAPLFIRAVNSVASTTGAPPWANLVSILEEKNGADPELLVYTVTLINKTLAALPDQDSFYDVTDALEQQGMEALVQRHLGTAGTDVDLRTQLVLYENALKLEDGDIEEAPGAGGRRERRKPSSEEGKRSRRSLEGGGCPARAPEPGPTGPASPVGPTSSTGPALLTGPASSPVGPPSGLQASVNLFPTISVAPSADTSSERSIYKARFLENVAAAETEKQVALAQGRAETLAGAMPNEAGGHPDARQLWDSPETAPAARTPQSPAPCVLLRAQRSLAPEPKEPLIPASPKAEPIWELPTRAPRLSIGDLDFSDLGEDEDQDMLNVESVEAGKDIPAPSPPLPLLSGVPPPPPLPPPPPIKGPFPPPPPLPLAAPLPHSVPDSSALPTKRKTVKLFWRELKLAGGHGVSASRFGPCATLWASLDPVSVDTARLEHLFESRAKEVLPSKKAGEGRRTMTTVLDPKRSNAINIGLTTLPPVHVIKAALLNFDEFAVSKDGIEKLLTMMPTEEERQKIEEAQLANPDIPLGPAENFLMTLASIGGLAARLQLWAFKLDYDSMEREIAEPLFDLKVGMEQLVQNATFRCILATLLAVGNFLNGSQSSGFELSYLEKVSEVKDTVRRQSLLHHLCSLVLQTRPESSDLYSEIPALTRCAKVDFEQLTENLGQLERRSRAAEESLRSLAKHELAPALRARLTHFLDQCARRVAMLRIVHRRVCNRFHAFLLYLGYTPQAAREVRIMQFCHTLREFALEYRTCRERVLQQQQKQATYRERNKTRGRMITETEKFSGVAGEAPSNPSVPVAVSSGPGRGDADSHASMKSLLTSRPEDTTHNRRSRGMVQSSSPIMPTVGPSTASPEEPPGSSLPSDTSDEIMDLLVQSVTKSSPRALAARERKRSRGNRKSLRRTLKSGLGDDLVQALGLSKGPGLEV
How it was run: (§1)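 Gel slices were reduced with 5 mM DTT, alkylated with 11 mM IAA and digested overnight at 37° C. with trypsin. Peptides were analysed on an Orbitrap Fusion Tribrid by LC-MS/MS.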

[2] = target: T2, PARP10 (human, UniProt Q53GL7 1-1025); assay: IP/MS, LZTR1 R810W-FLAG, U87
T2 sequence (looked up): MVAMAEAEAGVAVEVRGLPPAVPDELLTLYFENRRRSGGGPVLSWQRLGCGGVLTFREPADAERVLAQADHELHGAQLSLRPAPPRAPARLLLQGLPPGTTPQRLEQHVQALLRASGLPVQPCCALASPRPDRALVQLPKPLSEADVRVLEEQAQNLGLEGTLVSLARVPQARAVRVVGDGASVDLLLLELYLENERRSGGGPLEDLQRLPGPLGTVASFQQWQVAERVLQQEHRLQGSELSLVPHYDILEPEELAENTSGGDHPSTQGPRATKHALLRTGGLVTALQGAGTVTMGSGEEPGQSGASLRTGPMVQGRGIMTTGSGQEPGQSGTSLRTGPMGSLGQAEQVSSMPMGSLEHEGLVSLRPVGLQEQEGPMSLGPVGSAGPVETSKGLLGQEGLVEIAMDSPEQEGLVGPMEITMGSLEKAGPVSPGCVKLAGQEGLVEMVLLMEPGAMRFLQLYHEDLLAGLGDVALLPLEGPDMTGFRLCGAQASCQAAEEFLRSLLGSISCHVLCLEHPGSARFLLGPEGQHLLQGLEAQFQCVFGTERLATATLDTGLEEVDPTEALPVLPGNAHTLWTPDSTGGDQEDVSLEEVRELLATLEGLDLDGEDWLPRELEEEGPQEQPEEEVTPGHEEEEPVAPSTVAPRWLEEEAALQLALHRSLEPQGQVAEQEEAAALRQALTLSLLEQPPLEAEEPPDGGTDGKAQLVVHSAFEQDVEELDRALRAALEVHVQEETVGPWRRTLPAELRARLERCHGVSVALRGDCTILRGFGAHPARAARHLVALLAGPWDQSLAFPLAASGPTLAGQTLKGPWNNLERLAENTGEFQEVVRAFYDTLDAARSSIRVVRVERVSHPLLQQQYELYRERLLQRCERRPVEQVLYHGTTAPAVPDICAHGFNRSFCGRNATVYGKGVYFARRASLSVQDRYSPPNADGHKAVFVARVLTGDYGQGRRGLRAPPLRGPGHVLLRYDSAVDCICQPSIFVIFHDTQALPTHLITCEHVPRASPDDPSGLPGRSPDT
How it was run: as §1

B1: LZTR1 R810W-FLAG (other, human, UniProt Q8N653 1-840, looked up)
chain: MAGPGSTGGQIGAAALAGGARSKVAPSVDFDHSCSDSVEYLTLNFGPFETVHRWRRLPPCDEFVGARRSKHTVVAYKDAIYVFGGDNGKTMLNDLLRFDVKDCSWCRAFTTGTPPAPRYHHSAVVYGSSMFVFGGYTGDIYSNSNLKNKNDLFEYKFATGQWTEWKIEGRLPVARSAHGATVYSDKLWIFAGYDGNARLNDMWTIGLQDRELTCWEEVAQSGEIPPSCCNFPVAVCRDKMFVFSGQSGAKITNNLFQFEFKDKTWTRIPTEHLLRGSPPPPQRRYGHTMVAFDRHLYVFGGAADNTLPNELHCYDVDFQTWEVVQPSSDSEVGGAEVPERACASEEVPTLTYEERVGFKKSRDVFGLDFGTTSAKQPTQPASELPSGRLFHAAAVISDAMYIFGGTVDNNIRSGEMYRFQFSCYPKCTLHEDYGRLWESRQFCDVEFVLGEKEECVQGHVAIVTARSRWLRRKITQARERLAQKLEQEAAPVPREAPGVAAGGARPPLLHVAIREAEARPFEVLMQFLYTDKIKYPRKGHVEDVLLIMDVYKLALSFQLCRLEQLCRQYIEASVDLQNVLVVCESAARLQLSQLKEHCLNFVVKESHFNQVIMMKEFERLSSPLIVEIVRRKQQPPPRTPLDQPVDIGTSLIQDMKAYLEGAGAEFCDITLLLDGHPRPAHKAILAARSSYFEAMFRSFMPEDGQVNISIGEMVPSRQAFESMLRYIYYGEVNMPPEDSLYLFAAPYYYGFYNNRLQAYCKQNLEMNVTVQNVLQILEAADKTQALDMKRHCLHIIVHQFTKVSKLPTLWSLSQQLLLDIIDSLASHISDKQCAELGADI
notes: Stably expressed in U87 cells by lentivirus; also called LZTR1-FLAG-R810W; LZTR1 RW; not shown: FLAG tag
binding result [1]: binds
binding result [2]: binds
